Paper PMC8748766, “The catalytic activity of TCPTP is auto-regulated by its intrinsically disordered tail and activated by Integrin alpha-1” (Nature Communications, 2022)

Columns and labels:
Type in all cases: biochemical
[1] = test system: pEGFR peptide-2, derived from the EGFR's kinase domain activation loop; test: Phosphatase kinetic analysis (Michaelis-Menten) of TCPTP constructs, pEGFR peptide-2 substrate
Description: (§1) The rate of dephosphorylation of TCPTP and TCPTPCAT (residue 1–314) against 2 phosphotyrosine peptides derived from EGFR was monitored either with or without ITGA1 peptide (ITGA1_FCT & ITGA1_TR) in assay buffer (25 mM Hepes pH 7.4, 50 mM NaCl and 1 mM DTT). Lyophilized powder of all synthetic peptides was dissolved in assay buffer without DTT (phosphopeptides, 5 mM; ITGA1 peptides, 2 mM). For the kinetic analysis, the concentration of the enzyme was fixed at 1 nM while the substrate (phosphopeptides) concentration was varied from 2.5 μM to 160 μM in a total reaction volume of 200 μl. Effect of ITGA1 peptide on TCPTP & TCPTPCAT kinetics were assessed in saturated condition by adding an excess amount of ITGA1 peptide to the reaction mixture (ITGA1_TR = 1 μM; ITGA1_FCT = 25 μM). The reaction was incubated at 30 °C for 30 min and stopped by the addition of 30 μl phosphate reagent (phosphate colorimetric assay kit; Bio Vision) following the manufacturer’s instructions. Data were normalized and fitted using a nonlinear curve, and kinetics parameters (KM and kcat) were calculated from the Michaelis-Menten equation using Graph Pad Prism 9.0. All data points in the enzyme kinetics experiment were measured in triplicate, and the experiments were repeated three times.
Supplementary Table 2: Enzymatic activity assay (Michaelis-Menten analysis); substrate pEGFR peptide-2, derived from the EGFR’s kinase domain activation loop. Calculated kinetic parameter are presented as the mean of nine independent reactions (n=9; mean ± SE). Source data are provided as a Source Data file. kcat (s-1) Km (µM) kcat/Km (µM -1s-1)

[2] = DiFMUP assay of TCPTP, TCPTPCAT, PTP1B and PTP1BCAT; conditions: 10 μM DiFMUP, 2.5 nM protein, pH 7.4, 25 min, fluorescence 455 nm; n = 9
Description: Activity of TCPTP, TCPTPCAT (residue 1–314) either with or without ITGA1 peptides (ITGA1_TR; 1:50 molar ratio, ITGA1_FCT; 1:1000 molar ratio), PTP1B (residue 1–400) and PTP1BCAT (residue 1–321) were assessed in assay buffer (25 mM Hepes pH 7.4, 50 mM NaCl, and 1 mM DTT). The assay was performed in black polystyrene flat bottom 96-well plate. The concentration of DiFMUP was fixed at 10 μM and protein concentration at 2.5 nM in total reaction volume of 100 μl. The emitted fluorescent signal at 455 nm was continuously recorded for 25 min using a Tecan Infinite M1000 pro microplate reader (Tecan i-control, 2.0.10.0).

[3] = test system: pEGFR peptide-1, derived from the cytoplasmic tail of EGFR; test: Phosphatase kinetic analysis (Michaelis-Menten) of TCPTP constructs, pEGFR peptide-1 substrate
Description: as §1

[4] = pEGFR peptide-2 2.5-160 μM, 1 nM enzyme, pH 7.4, 30 °C 30 min, mean ± SE, n = 9

B1: TCPTP: T-Cell Protein Tyrosine Phosphatase, TC45 isoform, full-length residues 1–387 (protein)
chain: MPTTIEREFEELDTQRRWQPLYLEIRNESHDYPHRVAKFPENRNRNRYRDVSPYDHSRVKLQNAENDYINASLVDIEEAQRSYILTQGPLPNTCCHFWLMVWQQKTKAVVMLNRIVEKESVKCAQYWPTDDQEMLFKETGFSVKLLSEDVKSYYTVHLLQLENINSGETRTISHFHYTTWPDFGVPESPASFLNFLFKVRESGSLNPDHGPAVIHCSAGIGRSGTFSLVDTCLVLMEKGDDINIKQVLLNMRKYRMGLIQTPDQLRFSYMAIIEGAKCIKGDSSIQKRWKELSKEDLSPAFDHSPNKIMTEKYNGNRIGLEEEKLTGDRCTGLSSKMQDTMEENSESALRKRIREDRKATTAQKVQQMKQRLNENERKRKRPRLTDT
modifications: left off: His6, N-terminal, cleaved
- Km [1, 4]: 21.2 ± 2.6 µM
- kcat [1, 4]: 13.8 ± 0.5 s⁻¹
- kcat/Km ([1]; pEGFR peptide-2, mean ± SE, n = 9): 0.6 ± 0.1 µM -1s-1
- rate of dephosphorylation, fold slower than TCPTPCAT ([1]; pEGFR peptide-2, vs TCPTPCAT): ~ 3 fold
- DiFMUP dephosphorylation, times slower than with TCPTPCAT [2]: ~ 3 times
- kcat ([3]; pEGFR peptide-1 2.5-160 μM, 1 nM enzyme, 25 mM Hepes pH 7.4, 50 mM NaCl, 1 mM DTT, 30 °C 30 min, mean ± SE, n = 9 (TCPTPCAT, TCPTP) or 12 (TCPTPC-term, TCPTPL1)): 12.2 ± 0.2 s⁻¹
- Km ([3]; pEGFR peptide-1 2.5-160 μM, 1 nM enzyme, pH 7.4, 30 °C 30 min, mean ± SE, n = 9 (TCPTPCAT, TCPTP) or 12 (TCPTPC-term, TCPTPL1)): 12.4 ± 0.6 µM
- kcat/Km ([3]; pEGFR peptide-1, pH 7.4, 30 °C, mean ± SE, n = 9 (TCPTPCAT, TCPTP) or 12 (TCPTPC-term, TCPTPL1)): 1e+06 ± 100000 M⁻¹ s⁻¹
- rate of dephosphorylation, fold slower than TCPTPCAT ([3]; pEGFR peptide-1, vs TCPTPCAT): ~ 3 fold
